According to paper PMC5906480, “Tau Antibody Structure Reveals a Molecular Switch Defining a Pathological Conformation of the Tau Protein” (Scientific Reports, 2018):
Entries after “also recorded” stand apart in the source; their conditions may differ.

Experiments:
[1] = system: pS404 peptide; assay: ELISA, pS404 peptide; format: binding; conditions: plate coated with peptide 2 μg/mL; C5.2 IgG 8 μg/mL–0.05 ng/mL, 1 h room temperature; 405 nm
Description: Immulon 4 HBX (extra high-binding) 96-well microtiter plates (Thermo Scientific) were coated with the same peptide used for crystallization diluted to 2 μg/mL in phosphate-buffered saline (PBS) and left overnight at 4 °C (Table 1). Plates were then washed three times in PBS-T (PBS containing 0.05% Tween-20) and blocked in 5% non-fat milk and 3% bovine serum albumin in PBS for 2 hours at room temperature. Plates were subsequently washed 3 times in PBS-T before C5.2 was serially diluted (8 μg/mL–0.05 ng/mL) in PBS and incubated for 1 hour at room temperature. Then, alkaline phosphatase-conjugated goat anti-mouse IgG (Southern Biotech) was diluted 1:2000 in PBS and incubated for 30 minutes at room temperature. Finally, bound IgG was analyzed by addition of p-nitrophenyl phosphate substrate (Thermo Scientific) and measurement at 405 nm on a VersaMax Microplate Reader.
In order to evaluate the ability of C5.2 to exclusively target the phosphorylated epitope, we performed an enzyme-linked immunosorbent assay (ELISA). The peptides used in the assay are the same peptides used for crystallization and diluted to a concentration of 2 μg/mL (Table 1). Binding curves were generated from ELISA data by maintaining plate-bound peptide concentrations and serially diluting C5.2 IgG (Fig. 1c).

[2] = system: tau in brain fractions of rTg4510 mice overexpressing human tau with P301L mutation; assay: Western and dot blot, rTg4510 mouse brain; format: binding, human tau in rTg4510 mouse; conditions: C5.2 1 µg/mL overnight 4 °C, 24 weeks old mice
Text: (§1) rTg4510, tTA and non-Tg littermate F1 mice were bred at Taconic, Denmark. Mice expressing the tTA activator transgenes were maintained on 129S6 background strain (Taconic) and mutant tau responder mice were maintained in the FVB/NCrl background strain (Taconic). Mice were screened by PCR using the following primer pairs [NT] and [NT] for the tTA activator transgene and [NT] and [NT] for the mutant tau responder transgene. rTg4510, tTA and non-Tg littermates were group-housed (5 animals/cage) and received water and food ad libitum (Brogaarden, Denmark) as well as environmental enrichment. The light/dark cycle was 12 hours; room temperature was 21 ± 2 °C and a relative humidity of 55% ± 5%. All animal experiments were performed in accordance with the European Communities Council Directive #86/609, the directives of the Danish National Committee on Animal Research Ethics, and Danish legislation on experimental animals (license no. 2014-15-0201-00339). Mice were euthanized by cervical dislocation. Brains were quickly removed, weighed and divided sagittally down the midline to yield two hemispheres. […] Tau and pTau levels were assessed in the samples using 1 μg/mL C5.2 overnight at 4 °C. A secondary fluorophore conjugated IgG antibody was used (IRDye 680 Goat anti-mouse, LICOR biosciences) and the signal was quantified using Odyssey CLx and Image studio software (LI-COR biosciences). […]

[3] = system: normal tau in the soluble tau fraction (S1) from non-transgenic littermates; assay: Western and dot blot, non-transgenic littermate brain; format: binding, mouse; conditions: C5.2 1 µg/mL overnight 4 °C, 24 weeks old non-tg mice
Text: as §1

B1: C5.2: novel mouse monoclonal antibody that targets the pS396 tau epitope region (antibody, V domains shown)
VH: QVQLQQSDAELVKPGASVKISCKASGYTFTDRTIHWVKQRPEQGLEWIGYIYPGDDSTKYNDMFKAKATLTADKSSNTAYMQLNSLTSDDSAVYFCARRGTMDYWGQGTSVTVSS
VL: DVQMIQSPSSLSASLGDIVTMTCQASQDTSINLNWFQQKPGKAPKLLIYGASNLEDGVPSRFSGSRYGTDFTLTISSLEDEDMATYFCLQHTYLPFTFGSGTKLEIK
Recognition of peptide (ELISA) [1]: lack of recognition; also recorded: does not bind
Binding to insoluble tau fraction (P3) ([2]; sarkosyl-insoluble P3): binds predominantly to an insoluble tau fraction (P3)
Reactivity to soluble tau fraction (S1) ([2]; soluble S1): also has reactivity to a soluble tau fraction (S1)
Detection of normal tau (S1) [3]: not detected
